Test results reported in the supplement of paper PMC7125110.
± gives the standard error. Variants at the floor of the assay were thinned out.

B1: glmS ribozyme (parent)
chain: AUAAAAGCGCCAGAACUACAGAAAUGUAGUUGACGAGGAGGAGGUUUAUCGAAUUUUCGGCGGAUGCCUCCAAA

Legend:
Conditions in all cases: with glucosamine-6-phosphate
[1] = variants of: B1; assay: self-cleavage kobs at 40 uM GlcN6P; higher = faster cleavage; RNA array
Outline: (§1)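 kobs was derived by fitting per-tile medians to one- or two-exponential decays after normalising signals to baseline and to non-cleaving reference variants. Those signals came from barcoded ribozyme variants transcribed in situ by E. coli RNA polymerase on sequenced MiSeq chips, followed through a hybridised Cy3 probe at 37 °C and imaged over ~14 h. Glucosamine-6-phosphate (40 μM to 10 mM) in HEPES/KCl/Mg(OAc)2 buffer was flowed in. Weighted Michaelis–Menten fits across concentrations then gave kcat and KM.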

[2] = variants of: B1; assay: self-cleavage kobs at 160 uM GlcN6P; higher = faster cleavage; RNA array
Outline: as §1

[3] = variants of: B1; assay: self-cleavage kobs at 640 uM GlcN6P; higher = faster cleavage; RNA array
Outline: as §1

[4] = variants of: B1; assay: self-cleavage kobs at 10000 uM GlcN6P; higher = faster cleavage; RNA array
Outline: as §1

[5] = variants of: B1; assay: self-cleavage kobs at 2500 uM GlcN6P; higher = faster cleavage; RNA array
Outline: as §1

Row | Variant | self-cleavage kobs at 40 uM GlcN6P [1] [s⁻¹] | self-cleavage kobs at 160 uM GlcN6P [2] [s⁻¹] | self-cleavage kobs at 640 uM GlcN6P [3] [s⁻¹] | self-cleavage kobs at 10000 uM GlcN6P [4] [s⁻¹] | self-cleavage kobs at 2500 uM GlcN6P [5] [s⁻¹]
1 | G13A U47A G60U | < 1e-05 | < 1e-05 | < 1e-05 | < 1e-05 | 
2 | A6G A36G | < 1e-05 |  | < 1e-05 | < 1e-05 | < 1e-05
3 | G40A A48C U57A C61G | < 1e-05 |  |  |  | < 1e-05
4 | G29C C70U | 8.66e-05 ± 9.8e-06 | 0.000143 ± 1.8e-05 | 0.000243 ± 2.2e-05 | 0.000815 ± 0.00013 | 0.00103 ± 0.00018
5 | A12U A36G | < 1e-05 | < 1e-05 |  |  | 
6 | G35C C58A | < 1e-05 |  | < 1e-05 | < 1e-05 | 
7 | C10U A14G A52U G60U | < 1e-05 |  |  | < 1e-05 | < 1e-05
8 | G40A C67A | < 1e-05 |  | 0.000183 ± 5.8e-05 |  | 0.000262 ± 0.00011
9 | G9U G37A | < 1e-05 | < 1e-05 |  |  | < 1e-05
10 | A12G C61G | < 1e-05 |  |  | < 1e-05 | 
11 | G7U A14U A48G U56C A64U G66U | < 1e-05 |  |  | < 1e-05 | 
12 | G35A G40C | < 1e-05 | < 1e-05 | < 1e-05 | < 1e-05 | < 1e-05
13 | G35U G66U | < 1e-05 | < 1e-05 | < 1e-05 | < 1e-05 | < 1e-05
14 | A33C G38C | < 1e-05 | < 1e-05 | < 1e-05 |  | < 1e-05
15 | G9U C10G A48C A52G | < 1e-05 |  |  |  | 
16 | G32U U56A C61G C67A | 7.99e-05 ± 3e-05 |  |  |  | 
17 | A36G G63A | < 1e-05 | < 1e-05 | < 1e-05 | < 1e-05 | < 1e-05
18 | C16U C34A | < 1e-05 |  |  |  | 
19 | G37C A42C C71G | < 1e-05 | < 1e-05 | < 1e-05 | < 1e-05 | < 1e-05
20 | G9A U31G A39G A48C G60C | < 1e-05 |  |  |  | 
21 | A42U U49G C68G | < 1e-05 |  |  |  | 
22 | A52G A53C | < 1e-05 |  |  |  | 
23 | G43A G44U U55C | < 1e-05 |  |  | < 1e-05 | 

Row | Variant | self-cleavage kobs at 40 uM GlcN6P [1] [s⁻¹] | self-cleavage kobs at 160 uM GlcN6P [2] [s⁻¹] | self-cleavage kobs at 640 uM GlcN6P [3] [s⁻¹] | self-cleavage kobs at 10000 uM GlcN6P [4] [s⁻¹] | self-cleavage kobs at 2500 uM GlcN6P [5] [s⁻¹]
24 | A12C A42U C58U | < 1e-05 |  |  |  | 
25 | G44C U46G | < 1e-05 | < 1e-05 | < 1e-05 |  | < 1e-05
26 | A33G G41U | < 1e-05 | < 1e-05 | < 1e-05 | < 1e-05 | 
27 | U31G U57G | < 1e-05 |  |  |  | 
28 | C8U A39C | < 1e-05 | < 1e-05 | < 1e-05 | < 1e-05 | < 1e-05
29 | C8A U55G A64C U69G | 0.000295 ± 0.00013 |  |  | 5.15e-05 ± 2.4e-05 | 
30 | A39U G66U C67U | 3.54e-05 ± 1.2e-05 |  |  |  | 
31 | C10A G40U U54C | < 1e-05 |  |  | < 1e-05 | 
32 | G7C U49G | < 1e-05 | < 1e-05 |  |  | 
33 | G51C U55G | < 1e-05 | < 1e-05 | < 1e-05 | < 1e-05 | < 1e-05
34 | A39G U45C U57C C70U C71U | < 1e-05 |  |  |  | 
35 | A33U A53U C61A U69A | < 1e-05 |  |  |  | 
36 | C11A U46A | < 1e-05 |  | < 1e-05 | < 1e-05 | 
37 | A12U G32C C67U | < 1e-05 |  |  |  | 
38 | G63U G66U | < 1e-05 |  | < 1e-05 | < 1e-05 | < 1e-05
39 | G9U U45G C50G | < 1e-05 | < 1e-05 | < 1e-05 | < 1e-05 | 
40 | G13A U49A A64G | < 1e-05 | < 1e-05 | < 1e-05 |  | 
41 | U2C A33G | < 1e-05 | < 1e-05 |  | < 1e-05 | < 1e-05
42 | A39C A52G G59U U69G | < 1e-05 |  |  |  | 
43 | C16U C50G G62A C67G | 6.99e-05 ± 1.9e-05 |  | 0.000337 ± 7.8e-05 | 9.28e-05 ± 1.6e-05 | 
44 | G32U A52C | < 1e-05 |  | < 1e-05 | < 1e-05 | 
45 | A14U G60U | < 1e-05 | < 1e-05 | < 1e-05 | < 1e-05 | < 1e-05
46 | U54G C70U | 0.00112 ± 0.00013 | 0.000836 ± 0.00011 | 0.00544 ± 0.001 |  | 
